Reference: paper PMC6175958, “Formation of the β-barrel assembly machinery complex in lipid bilayers as seen by solid-state NMR” (Nature Communications, 2018)

Biological target: T1, BamCDE complex (E. coli, UniProt P0A903 25-344; P0AC02 20-245; P0A937 20-113)
T1 construct: BamC, lipoprotein of the E. coli BAM complex; BamD, lipoprotein of the E. coli BAM complex; BamE, lipoprotein of the E. coli BAM complex; Unlabelled; also called BamCDE sub-complex; BamCDE subcomplex; copies: + +
Assay: SEC; equimolar combination of the detergent solubilized proteins, mild rotation 1 h at 4 °C, then gel filtration on HiLoad 26/600 Superdex 200 pg
Conditions: both partners purified

- binding result: binds
B1: BamAP4P5 (D264–W810) (domain or fragment)
chain: not shown
notes: BamA of E. coli, POTRA domains P4 and P5 plus the transmembrane β-barrel, residues D264–W810 (547 residues); Isotope labelled (AVLTI 13C/15N, or 13C-Ile, 13C-Phe and 15N-Gly) for the ssNMR samples; also called BamP4P5
